The text below walks through data of paper PMC5602543.

Assay [1] deals with MPyV VP1 (major capsid protein of mouse polyomavirus) as VLPs of the VarB structure (mouse polyomavirus (MPyV)) (UniProt P03090). The experiment in a line: co-purification with VLPs (SDS-PAGE, Western blot, band densitometry); VP1 and FLAG-Cap-tVP3 co-expressed in insect cells; purified VLPs VarB resolved by SDS-PAGE, anti-FLAG blot; densities of Coomassie-stained bands measured. (In general: Immunoblotting shows a protein as a band on a membrane.)

The target in assay [2] is VarC (VP1-Cap-His: entire PCV2b Cap fused to the C-terminus of MPyV VP1) (mouse polyomavirus (MPyV) | porcine circovirus 2b (PCV2b)) (UniProt P03090). Description: native gel or EMSA; blue native PAGE (BN-PAGE) of purified VarC, native 3-12% gradient gel, Gelcode staining. On the technique in general: In EMSA bound probe runs differently from free probe, usually more slowly.

Take “FLAG-Cap-tVP3 (entire PCV2b Cap fused with truncated MPyV minor capsid protein VP3)”: the stoichiometry N (FLAG-Cap-tVP3 molecules per one particle) in assay [1] turned out to be 12. Also, the stoichiometry N in assay [1] (scale: molecules of Cap protein per one VLP) amounted to 14.

For the substance “VarC (VP1-Cap-His: entire PCV2b Cap fused to the C-terminus of MPyV VP1) (from UniProt P03090 1-383)”, the stoichiometry N in assay [2] was 10.

In general, stoichiometry N refers to a count of units in the complex or per binding partner.
